According to IntAct's records for PubMed 21423214:

B1: Tyrosine-protein kinase JAK2 (Mus musculus), Q62120 (parent)
chain: MGMACLTMTEMEATSTSPVHQNGDIPGSANSVKQIEPVLQVYLYHSLGQAEGEYLKFPSGEYVAEEICVAASKACGITPVYHNMFALMSETERIWYPPNHVFHIDESTRHDILYRIRFYFPHWYCSGSSRTYRYGVSRGAEAPLLDDFVMSYLFAQWRHDFVHGWIKVPVTHETQEECLGMAVLDMMRIAKEKDQTPLAVYNSVSYKTFLPKCVRAKIQDYHILTRKRIRYRFRRFIQQFSQCKATARNLKLKYLINLETLQSAFYTEQFEVKESARGPSGEEIFATIIITGNGGIQWSRGKHKESETLTEQDVQLYCDFPDIIDVSIKQANQECSNESRIVTVHKQDGKVLEIELSSLKEALSFVSLIDGYYRLTADAHHYLCKEVAPPAVLENIHSNCHGPISMDFAISKLKKAGNQTGLYVLRCSPKDFNKYFLTFAVERENVIEYKHCLITKNENGEYNLSGTKRNFSNLKDLLNCYQMETVRSDSIIFQFTKCCPPKPKDKSNLLVFRTNGISDVQISPTLQRHNNVNQMVFHKIRNEDLIFNESLGQGTFTKIFKGVRREVGDYGQLHKTEVLLKVLDKAHRNYSESFFEAASMMSQLSHKHLVLNYGVCVCGEENILVQEFVKFGSLDTYLKKNKNSINILWKLGVAKQLAWAMHFLEEKSLIHGNVCAKNILLIREEDRRTGNPPFIKLSDPGISITVLPKDILQERIPWVPPECIENPKNLNLATDKWSFGTTLWEICSGGDKPLSALDSQRKLQFYEDKHQLPAPKWTELANLINNCMDYEPDFRPAFRAVIRDLNSLFTPDYELLTENDMLPNMRIGALGFSGAFEDRDPTQFEERHLKFLQQLGKGNFGSVEMCRYDPLQDNTGEVVAVKKLQHSTEEHLRDFEREIEILKSLQHDNIVKYKGVCYSAGRRNLRLIMEYLPYGSLRDYLQKHKERIDHKKLLQYTSQICKGMEYLGTKRYIHRDLATRNILVENENRVKIGDFGLTKVLPQDKEYYKVKEPGESPIFWYAPESLTESKFSVASDVWSFGVVLYELFTYIEKSKSPPVEFMRMIGNDKQGQMIVFHLIELLKSNGRLPRPEGCPDEIYVIMTECWNNNVSQRPSFRDLSLRVDQIRDSIAA

Variants of: B1
Conditions: with cdn1b_human CDKN1B

Variant | effect of a mutation on the interaction
V617F | increasing interaction strength
